# From article PMC10589721 (Proceedings of the National Academy of Sciences of the …, 2023)
# Where two headings read alike, the source gives them in different places. No end group written: not given here. *: point of attachment. Biotin = O=C1N[C@H]2[C@H](CS[C@H]2CCCCC(=O)*)N1; Ahx = NCCCCCC(=O)O
# T1: full-length human OGT (Homo sapiens, UniProt O15294)
# T1 sequence (O15294 1-1046): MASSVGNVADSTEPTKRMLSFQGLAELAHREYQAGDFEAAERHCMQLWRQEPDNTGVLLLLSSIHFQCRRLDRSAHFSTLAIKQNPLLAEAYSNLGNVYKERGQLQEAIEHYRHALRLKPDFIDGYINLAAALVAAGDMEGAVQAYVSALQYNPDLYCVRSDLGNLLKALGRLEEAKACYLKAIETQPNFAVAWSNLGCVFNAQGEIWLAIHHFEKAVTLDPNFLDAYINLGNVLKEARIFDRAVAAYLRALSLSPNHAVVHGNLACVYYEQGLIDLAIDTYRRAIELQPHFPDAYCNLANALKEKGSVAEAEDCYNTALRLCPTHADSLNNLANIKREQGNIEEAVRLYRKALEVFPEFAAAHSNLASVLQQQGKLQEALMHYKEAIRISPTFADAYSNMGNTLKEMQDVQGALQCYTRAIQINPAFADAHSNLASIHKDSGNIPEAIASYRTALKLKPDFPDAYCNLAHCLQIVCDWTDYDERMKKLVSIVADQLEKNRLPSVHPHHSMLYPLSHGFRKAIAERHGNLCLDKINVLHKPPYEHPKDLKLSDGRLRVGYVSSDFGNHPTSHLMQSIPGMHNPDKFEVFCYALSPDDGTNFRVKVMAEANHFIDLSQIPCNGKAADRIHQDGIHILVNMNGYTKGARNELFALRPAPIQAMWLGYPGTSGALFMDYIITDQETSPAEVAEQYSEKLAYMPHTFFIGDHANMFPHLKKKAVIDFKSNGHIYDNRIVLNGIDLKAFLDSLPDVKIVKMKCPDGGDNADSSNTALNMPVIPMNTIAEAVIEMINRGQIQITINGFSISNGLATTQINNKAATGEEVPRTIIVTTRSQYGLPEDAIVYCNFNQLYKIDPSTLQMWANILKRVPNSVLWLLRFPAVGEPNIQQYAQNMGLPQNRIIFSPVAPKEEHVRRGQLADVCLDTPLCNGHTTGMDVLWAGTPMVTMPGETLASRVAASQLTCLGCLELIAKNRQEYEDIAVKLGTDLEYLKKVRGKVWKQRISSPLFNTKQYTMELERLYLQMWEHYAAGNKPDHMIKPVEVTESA
# T2: O-GlcNAc transferase (OGT), as used in the fluorescence activity assay (human, UniProt O15294 1-1046)
# T2 sequence (looked up): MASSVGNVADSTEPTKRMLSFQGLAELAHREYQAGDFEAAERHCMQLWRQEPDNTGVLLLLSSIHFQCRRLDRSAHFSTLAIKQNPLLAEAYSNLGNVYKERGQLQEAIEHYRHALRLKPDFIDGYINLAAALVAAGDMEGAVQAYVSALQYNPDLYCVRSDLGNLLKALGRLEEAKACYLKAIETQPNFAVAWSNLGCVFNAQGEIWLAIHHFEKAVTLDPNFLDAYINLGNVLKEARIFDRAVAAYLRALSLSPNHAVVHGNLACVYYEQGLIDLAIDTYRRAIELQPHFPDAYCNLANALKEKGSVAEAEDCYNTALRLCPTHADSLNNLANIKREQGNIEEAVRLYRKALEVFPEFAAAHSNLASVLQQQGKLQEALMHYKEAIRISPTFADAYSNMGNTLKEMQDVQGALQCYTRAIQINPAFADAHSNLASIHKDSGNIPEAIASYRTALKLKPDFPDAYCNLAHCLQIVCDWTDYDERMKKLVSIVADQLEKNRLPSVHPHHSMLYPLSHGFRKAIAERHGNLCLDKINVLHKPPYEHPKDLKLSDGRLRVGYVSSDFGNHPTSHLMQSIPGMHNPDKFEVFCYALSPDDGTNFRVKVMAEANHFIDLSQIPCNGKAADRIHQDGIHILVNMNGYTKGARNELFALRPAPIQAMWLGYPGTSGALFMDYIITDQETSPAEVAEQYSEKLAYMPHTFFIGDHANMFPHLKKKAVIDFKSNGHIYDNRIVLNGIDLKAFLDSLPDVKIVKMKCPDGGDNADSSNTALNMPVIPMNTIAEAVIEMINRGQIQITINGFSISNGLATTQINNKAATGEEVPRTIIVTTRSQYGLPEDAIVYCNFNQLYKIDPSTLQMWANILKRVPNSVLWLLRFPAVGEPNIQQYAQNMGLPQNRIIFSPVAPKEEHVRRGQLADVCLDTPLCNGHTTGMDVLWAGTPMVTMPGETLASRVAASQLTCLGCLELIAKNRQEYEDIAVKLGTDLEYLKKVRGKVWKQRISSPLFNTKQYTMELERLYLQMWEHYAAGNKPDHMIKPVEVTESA
# T3: OGT4.5 (crystallizable construct of O-GlcNAc transferase: catalytic region appended to 4.5 TPRs) (human, UniProt O15294 323-1041)
# T3 sequence: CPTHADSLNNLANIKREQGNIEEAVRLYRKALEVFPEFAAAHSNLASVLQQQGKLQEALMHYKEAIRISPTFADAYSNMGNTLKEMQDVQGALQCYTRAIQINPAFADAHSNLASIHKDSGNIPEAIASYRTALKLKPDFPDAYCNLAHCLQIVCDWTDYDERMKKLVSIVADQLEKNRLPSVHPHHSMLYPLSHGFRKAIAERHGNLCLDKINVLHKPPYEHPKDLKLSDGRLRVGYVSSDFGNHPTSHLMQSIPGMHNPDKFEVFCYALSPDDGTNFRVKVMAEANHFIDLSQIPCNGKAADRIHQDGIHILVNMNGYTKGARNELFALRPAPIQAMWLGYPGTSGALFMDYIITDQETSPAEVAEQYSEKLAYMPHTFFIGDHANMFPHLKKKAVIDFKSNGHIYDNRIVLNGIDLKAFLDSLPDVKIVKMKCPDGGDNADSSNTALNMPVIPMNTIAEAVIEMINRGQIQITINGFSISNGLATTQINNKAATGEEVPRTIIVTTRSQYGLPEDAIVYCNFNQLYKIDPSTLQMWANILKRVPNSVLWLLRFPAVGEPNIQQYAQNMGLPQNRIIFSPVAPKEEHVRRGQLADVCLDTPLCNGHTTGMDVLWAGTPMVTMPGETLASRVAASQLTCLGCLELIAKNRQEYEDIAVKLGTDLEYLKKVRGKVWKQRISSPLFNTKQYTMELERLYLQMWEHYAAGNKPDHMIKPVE
# Legend:
# full-length human OGT = molecular target: T1, full-length human OGT; assay: OGT inhibition assay; format: biochemical
# [1] = molecular target: T2, O-GlcNAc transferase (OGT), as used in …; assay: enzyme inhibition kinetics
# [2] = molecular target: T2, O-GlcNAc transferase (OGT), as used in …; assay: enzyme inhibition kinetics; remark: listed apart in the source
# [3] = molecular target: T2, O-GlcNAc transferase (OGT), as used in …; assay: enzyme inhibition kinetics; remark: listed apart in the source
# [4] = molecular target: T3, OGT4.5 (crystallizable construct of …); assay: BLI
# [5] = molecular target: T3, OGT4.5 (crystallizable construct of …); assay: crystal structure
molecule,measurement,setting,value
DDSDLYSPRYSFSED [repeat 2 of SORB1],inhibition of OGT (in words),full-length human OGT,none of these four peptides inhibited OGT
PEENPYFPTYKFPEL [repeat 1 of SORB1],inhibition of OGT (in words),full-length human OGT,none of these four peptides inhibited OGT
PTSKAYSPRYSISDR [SOS1],inhibition of OGT (in words),full-length human OGT,none of these four peptides inhibited OGT
RGLGEFTPLYPMLFG [SCLY],inhibition of OGT (in words),full-length human OGT,none of these four peptides inhibited OGT
GDFPVMFMPKYSIIF [peptide P11],Ki,[1],2.7 ± 0.3 µM
same,Ki,[2],3.8 ± 0.4 µM
same,Ki,[3],4000 ± 900 µM
{Biotin-Ahx}-GDFPVMFMPKYSIIF [biotinylated peptide P11 (Biotin-Ahx-GDFPVMFMPKYSIIF)],Kd,[4],0.47 ± 0.16 µM
FMPKYSI [truncated P11 peptide (tP11)],binding result,[5],binds
